Test results reported in article PMC7949124, “Metallo-β-lactamase domain-containing protein 2 is S-palmitoylated and exhibits acyl-CoA hydrolase activity” (The Journal of Biological Chemistry, 2020).

Substrate: CCCCCCCCCCCCCCCC(=O)SCCNC(=O)CCNC(=O)[C@H](O)C(C)(C)COP(=O)(O)OP(=O)(O)OC[C@H]1O[C@@H](n2cnc3c(N)ncnc32)[C@H](O)[C@@H]1OP(=O)(O)O
Assay: radiometric acyl-CoA hydrolase assay, heptane extraction of [3H]-palmitate
Assay type: biochemical, Homo sapiens
Settings: 30 °C, 10 min, 0.05% DDM, labelled compound ([3H] tracer diluted with unlabelled), fitted over 0-10 μM because of substrate inhibition, n = 4
Text: radiometric acyl-CoA hydrolase assay, heptane extraction of [3H]-palmitate on MBLAC2

B1: MBLAC2 (Homo sapiens) (protein)
chain: MSALEWYAHKSLGDGIFWIQERFYESGNRANIWLVRGSEQDVVIDTGLGLRSLPEYLYSSGLLQDREAKEDAARRPLLAVATHVHFDHSGGLYQFDRVAVHHAEAEALARGDNFETVTWLSDSEVVRTPSPGWRARQFRVQAVQPTLILQDGDVINLGDRQLTVMHMPGHSRGSICLHDKDRKILFSGDVVYDGSLIDWLPYSRISDYVGTCERLIELVDRGLVEKVLPGHFNTFGAERLFRLASNYISKAGICHKVSTFAMRSLASLALRVTNSRTSP
notes: N-terminal hexahistidine tag, C-terminal FLAG; baculovirus/Sf9; zinc metalloenzyme; partly S-palmitoylated at Cys254
B1 was tested, and the Km was 1.9 ± 0.6 µM and the Vmax was 0.103 µmol/min/mg.

B2: MBLAC2 (Homo sapiens; C254A) (protein)
chain: MSALEWYAHKSLGDGIFWIQERFYESGNRANIWLVRGSEQDVVIDTGLGLRSLPEYLYSSGLLQDREAKEDAARRPLLAVATHVHFDHSGGLYQFDRVAVHHAEAEALARGDNFETVTWLSDSEVVRTPSPGWRARQFRVQAVQPTLILQDGDVINLGDRQLTVMHMPGHSRGSICLHDKDRKILFSGDVVYDGSLIDWLPYSRISDYVGTCERLIELVDRGLVEKVLPGHFNTFGAERLFRLASNYISKAGIAHKVSTFAMRSLASLALRVTNSRTSP
notes: as for B1
In the case of B2, the Km is reported as 2.2 ± 0.7 µM and the Vmax is reported as 0.0879 µmol/min/mg.
